# Laboratory results published in patent publication US7470668B2, “Method of use of specific natriuretic peptide receptor c ligands, transgenic non-human mammals expressing specific natriuretic peptide receptor c antagonists and cells thereof” (Enobia Pharma Inc., priority 2005, dated 2008).
# T1: rat GC-A (Rattus norvegicus, UniProt P18910)
# T1 construct: expressed in transfected cells; host or cells: HEK293, transient, CMV-driven pBK plasmid (gift of Dr. A. De Léan)
# T1 sequence (P18910 29-1057): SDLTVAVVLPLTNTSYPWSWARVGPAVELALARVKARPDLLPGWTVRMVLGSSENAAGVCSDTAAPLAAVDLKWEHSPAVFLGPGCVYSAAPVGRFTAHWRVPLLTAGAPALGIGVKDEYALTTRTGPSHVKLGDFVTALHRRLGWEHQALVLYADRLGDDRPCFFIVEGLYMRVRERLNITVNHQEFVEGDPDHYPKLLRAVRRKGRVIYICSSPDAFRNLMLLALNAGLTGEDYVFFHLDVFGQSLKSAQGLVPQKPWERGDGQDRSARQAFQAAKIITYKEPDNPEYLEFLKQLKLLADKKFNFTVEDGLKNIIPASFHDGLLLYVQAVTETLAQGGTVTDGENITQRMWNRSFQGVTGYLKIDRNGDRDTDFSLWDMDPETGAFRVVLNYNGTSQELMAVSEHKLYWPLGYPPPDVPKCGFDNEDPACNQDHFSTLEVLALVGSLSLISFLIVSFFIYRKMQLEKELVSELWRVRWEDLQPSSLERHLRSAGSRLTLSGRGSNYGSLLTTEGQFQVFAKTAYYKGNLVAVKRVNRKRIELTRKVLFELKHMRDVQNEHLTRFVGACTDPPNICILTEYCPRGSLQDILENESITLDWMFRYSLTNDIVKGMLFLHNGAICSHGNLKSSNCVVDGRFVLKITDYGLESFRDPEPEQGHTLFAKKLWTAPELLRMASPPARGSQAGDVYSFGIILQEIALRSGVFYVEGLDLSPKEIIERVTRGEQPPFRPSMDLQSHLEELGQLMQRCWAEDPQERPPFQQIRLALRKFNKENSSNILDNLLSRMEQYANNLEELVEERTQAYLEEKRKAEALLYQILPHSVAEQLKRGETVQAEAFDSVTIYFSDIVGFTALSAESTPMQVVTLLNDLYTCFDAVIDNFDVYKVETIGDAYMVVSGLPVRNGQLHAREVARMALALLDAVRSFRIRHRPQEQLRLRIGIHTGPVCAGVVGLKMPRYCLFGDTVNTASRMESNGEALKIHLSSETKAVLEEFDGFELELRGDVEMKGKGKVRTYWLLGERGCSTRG
# B1: rhOstn[27-133]: N-terminal 6 histidine-tagged recombinant human Ostn amino acids 27-133 produced in E.coli, SEQ ID NO: 57 (protein)
# chain: SVDVTTTEAFDSGVIDVQSTPTVREEKSATDLTAKLLLLDELVSLENDVIETKKKRSFSGFGSPLDRLSAGSVDHKGKQRKVVDHPKRRFGIPMDRIGRNRLSNSRG
# modifications: N-terminal His6 tag; recombinant mature osteocrin
# Experiments:
# rat GC-A = target: T1, rat GC-A; assay: Intracellular cGMP in GC-A transfected HEK293 cells; assay type: cell-based; conditions: 10 nM peptide, 15 min
# OVX rat = assay: Aged rat ovariectomy osteoporosis model, femoral BMD; assay type: in vivo; conditions: daily sub-cutaneous injections for 4 weeks, started 4 weeks post-OVX
# From the text: The most widely used non-primate model for pre-clinical osteoporosis studies is the aged rat ovariectomy model (OVX rat). In this model, rapid trabecular bone loss occurs within the first month after ovariectomy (OVX) with an upregulation of both osteoblast and osteoclast activity resulting in increased bone turnover. However, similar to osteoporosis, the levels of osteoclast activity exceed those of osteoblast activity resulting in an imbalance in remodelling and consequently bone loss. […]
# Thus, for the testing of potential therapeutic compounds in such a model one has two choices of approach. […] Efficacy can then be measured by assessing the ability of the compound to replace already lost bone. […]
# The second approach was adopted to allow the Ostn's therapeutic potential through both anabolic and anti-resorptive efficacies to be assessed. […] Rats were left for a 4-week period following ovariectomy or sham-operation for bone loss to occur and at this point bone loss was assessed by X-ray and DEXA before proceeding with the experiment (groups 1+2). […]
# FIG. 10 represents the femoral BMD (i.e. The amount of mineralized bone tissue in a given area, usually calculated as grams per square centimeter) as measured by Piximus™ on excised femurs fixed in 70% ethanol. […]
molecule,measurement,setting,value
B1,intracellular cGMP response via GC-A,rat GC-A,failed to activate
same,gain in femoral BMD over OVX-saline or OVX-mock treated rats,OVX rat,6%
